Molecular target: SARS-CoV-2 D614G stabilized spike ectodomain (SARS-CoV-2, D614G, UniProt A0A6H1PJZ3, D614G)
Test: ELISA

Binder	binding result
DH1047, cross-neutralizing RBD antibody (antibody, V domains shown) VH: QVQLVQSGAEVKKPGASVQVSCQASANTFTNHYIHWVRQAPGQGLEWMGIIYPTGGNTIYAQGFQGRVTMTRDTSLNTIYLELSSLRSEDTAVYYCARDVRVDDSWSGYDLLSGGTYFDYWGQGTLVTVSS VL: not shown	binds
DH1041, SARS-CoV-2-specific ACE2-binding site-focused RBD neutralizing antibody (antibody, V domains shown) VH: EVQLVESGGGLVQPGGSLRLSCAASGVTFSSYWMSWVRQAPGKGLEWVANIRQDGSEKYSVDSVKGRFTISRDNAKNSLYLQMNSLRAEDTAVYYCARARRADNSGYYGFHFDCWGQGTLVTVSS VL: QSVLTQPPSVSGAPGQRVTISCTGSSSNIGAGYDVHWYQQLPGTAPKLLIYGNNNRPSGVPDRFSDSKSGTSASLAITRLQAEDEADYYCQSYDSSLSGWVFGGGTKLTVL	binds

From paper PMC8528238 (Nature, 2021)
